The source of these data is the supplement of paper PMC10567573.

± gives the standard deviation.

This series is described as follows: protein stability index of a GFP-peptide fusion (GPS, HEK-293T) (PSI 1-6); higher = more stable.
Setting [1] is: treatment: DMSO, c terminus: a fixed tail appended.
The mark [2] stands for this setting: treatment: MLN4924 1 uM, 8 h, c terminus: a fixed tail appended.
The mark [3] stands for this setting: treatment: DMSO, c terminus: native.
Setting [4] is: treatment: MLN4924 1 uM, 8 h, c terminus: native.
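Further: 24-mer peptide tiles fused after GFP, lentivirally expressed, FACS-sorted into six equal bins by GFP/DsRed ratio, decoded by Illumina sequencing, PSI is the read-weighted mean bin number.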

Consider KGERGEDSSEEKHLEEPGETQNAF [CHGB], for which the protein stability index runs as follows: under setting [1], 5.61 ± 0.19; under setting [2], 5.62 ± 0.13.
The corresponding values for KIGNSAFARYPNGVVVHYFCSKEV [VPS39] are 2.41 ± 0.48 and 2.33 ± 0.32.
In turn, KILGYLNTNVLSRDLIPPHVNFSH [SLC6A17] had a protein stability index under setting [1] of 2.2 ± 0.33 and a protein stability index under setting [2] of 2.375 ± 0.022.
Turning to KIMIIICCVILGIVIASTVGGIFA [STX1A], the protein stability index by setting is: under setting [1], 2.04 ± 0.38; under setting [2], 2.23 ± 0.41.
For KKCCIPETRRRMEMAFNTRCKEEN [NLN], in that order: 3.57 ± 0.25 and 3.75 ± 0.22.
The corresponding values for KKHNVTAVVRLNKKIYEAKRFTDA [CDC14A] are 2.73 ± 0.2 and 2.49 ± 0.24.
The corresponding values for KKHYRLQFYMFGWTHVTLLIVVTQ [CDS2] are 2.89 ± 0.55 and 2.58 ± 0.71.
Take KKREFRFHPIKETVVEEPVDITPY [INTS3]: the protein stability index under setting [1] was found to be 2.83 ± 0.51 and the protein stability index under setting [2] stood at 3.59 ± 0.68.
On to KKRKRQEKIDKLEQDMERRKADFK [ZC3H15], for which the protein stability index came out at 4.7 ± 0.4 under setting [1] and 4.77 ± 0.1 under setting [2].
The corresponding values for KKRRLPPVHIHPAFARQAAQEPSA [FOXJ1] are 3.87 ± 0.25 and 3.82 ± 0.36.
Regarding KLHDFFSYLMDHFIPSSHNDRDFL [PPEF2], the protein stability index was determined as 2.46 ± 0.51 under setting [1] and 2.53 ± 0.64 under setting [2].
KLSEHLRYCDSILREMLSKKHAAY [BRD3]: the protein stability index reads like this: under setting [1], 2.28 ± 0.21; under setting [2], 2.14 ± 0.21.
Regarding KMPVLKAEASHYNSDLNNLLFCCQ [RHOBTB3], the protein stability index under setting [1] amounted to 2.27 ± 0.41 and the protein stability index under setting [2] amounted to 2.29 ± 0.15.
In the case of KNLFGPPLESAFDHEDFTGSSSLG [FCHO1], the protein stability index is, setting by setting: under setting [1], 4.22 ± 0.13; under setting [2], 4.37 ± 0.7.
For the sequence KNTEVSSMECEKNLYWICNKPYK [CD69], the protein stability index was 2.97 ± 0.2 under setting [3] and 2.86 ± 0.61 under setting [4].
As to KNYNYGMHYCAVPPRGPLGQGAMF [NEUROD6], the protein stability index runs as follows: under setting [1], 2.18 ± 0.44; under setting [2], 2.47 ± 0.34.
As to KPTRRDASPESPSKKGPIPIRRH [GNAS], the protein stability index runs as follows: under setting [3], 4.71 ± 0.19; under setting [4], 5.21 ± 0.49.
Regarding KQDSLVILTIMATLKIRNSNFYTV [TMEM106C], the protein stability index came to 3.25 ± 0.41 under setting [1] and 3 ± 0.67 under setting [2].
For KQEQSIISEYEKSLQFDEKCLSIM [RPAIN], in that order: 3.67 ± 0.12 and 3.69 ± 0.23.
For KQLRQVTKEEGLALAREFSCPFFE [RIT1], in that order: 3.27 ± 0.29 and 3.49 ± 0.33.
The sequence KQSFLDGGKGHHLPSENLGKEPLD [TOR1AIP2] returned a protein stability index under setting [1] of 5.13 ± 0.11 and a protein stability index under setting [2] of 5.01 ± 0.21.
Consider KRDDYLEWPEYFMAVAFLSAQRSK [DCTD], for which the protein stability index reads like this: under setting [1], 2.27 ± 0.19; under setting [2], 2.12 ± 0.35.
For KSLEIEEKINKIKWLPQQNAAHSL [PPP2R2C], in that order: 3.66 ± 0.21 and 3.67 ± 0.13.
For the sequence KSQRQPRTSPSCAFRSDDTKGHPR [CDC14A], the protein stability index reads like this: under setting [1], 4.49 ± 0.16; under setting [2], 4.62 ± 0.2.
In the case of KTERINALELLGATFVDKKRDLLG [FEM1C], the protein stability index is, setting by setting: under setting [1], 3.23 ± 0.1; under setting [2], 3.4 ± 0.22.
For KTLYVGNLSRDVTEALILQLFSQI [TIA1], in that order: 2.6 ± 0.51 and 2.73 ± 0.42.
The corresponding values for KVDGPRSPSYGRSRSRSRSRSRSR [SRSF1] are 5.27 ± 0.26 and 5.46 ± 0.14.
The corresponding values for KVLLSGATFLVTFGNSEKPETMTC [ZFYVE21] are 2.43 ± 0.27 and 2.23 ± 0.72.
Take KVPNHYIAIPEWFLSENATVAAET [CPXM2]: the protein stability index is, setting by setting: under setting [1], 3.22 ± 0.43; under setting [2], 3.32 ± 0.47.
In the case of KVSQWWERLTKQEKRPLFLAPDFD [HACD3], the protein stability index reads like this: under setting [1], 2.34 ± 0.31; under setting [2], 2.55 ± 0.089.
For KYEKLRGDVAIKLKFLEENKIKVM [ARFIP2], the protein stability index runs as follows: under setting [1], 2.22 ± 0.37; under setting [2], 2.48 ± 0.27.
The corresponding values for KYSYTSTSDDNLLKNIELFDKLAL [KCTD13] are 2.63 ± 0.42 and 2.59 ± 0.26.
For LAEARRLFPGRVSVDLMLGLPAQQ [RSAD1], in that order: 2.76 ± 0.25 and 2.7 ± 0.31.
Regarding LAFFPFLHRLFREKSLDQLKSISA [PHTF1], the protein stability index under setting [1] was found to be 2.46 ± 0.3 and the protein stability index under setting [2] stood at 2.26 ± 0.35.
With LAIFKSGGIPALVKMLGSPVDSVL [CTNNB1], the protein stability index turned out to be 2.28 ± 0.36 under setting [1] and 2.14 ± 0.35 under setting [2].
Regarding LAKEIRVKAEPFIKWLKEAEEESS [EIF5], the protein stability index runs as follows: under setting [1], 3.33 ± 0.2; under setting [2], 3.9 ± 0.52.
For the sequence LALDSGASLLHLAVEAGQEECAKW [RIPK4], the protein stability index was found to be 3.73 ± 1.2 under setting [1] and 3.46 ± 0.4 under setting [2].
The corresponding values for LAPGPAPTRCLPGHKEEEDGEGAG [ESRRA] are 5.45 ± 0.16 and 5.48 ± 0.081.
The corresponding values for LAVFARCLAGCEGAHEQVDFKDFY [P3H4] are 1.94 ± 0.45 and 2.02 ± 0.31.
For LDAHYHVKISDFGLAKCNGLSHSH [RIPK4], in that order: 2.25 ± 0.31 and 2.48 ± 0.15.
Turning to LDNTKFRSHEGETAYIRVKVDGPR [SRSF1], the protein stability index runs as follows: under setting [1], 3.73 ± 0.34; under setting [2], 3.49 ± 0.32.
For LDPMKNVTCENGLPAVVSCVPGQV [LOXL2], the protein stability index under setting [2] was found to be 4.36 ± 0.06.
In turn, LEELTKLQNNCTSSITRQKKRLQE [TMEM120A] displayed a protein stability index under setting [1] of 4.81 ± 0.3 and a protein stability index under setting [2] of 4.76 ± 0.31.
On to LEIELQSQLSMKAGLENTVAETEC [KRT13], for which the protein stability index by setting is: under setting [1], 5.02 ± 0.43; under setting [2], 5.03 ± 0.11.
For LETSGNPNGRYGSGYLLASTPESE [SLC6A17], in that order: 4.93 ± 0.14 and 4.91 ± 0.26.
The corresponding values for LFGGFADFGSAAASGSFPSQVTAT [CLINT1] are 2.71 ± 0.37 and 3.02 ± 0.33.
The corresponding values for LFHRLDEDWDSALFAELGYFTDTD [ATF6] are 2.91 ± 0.48 and 3.02 ± 0.26.
Take LFSSHPPLGGGVGGQDGLGAPKDQ [KLHL14]: the protein stability index by setting is: under setting [1], 4.89 ± 0.55; under setting [2], 4.81 ± 0.049.
For LFVLFMFFGMAFNFIVNDSRKKPI [SOAT1], in that order: 3.19 ± 0.45 and 2.99 ± 0.24.
The corresponding values for LGEVAYHDYHGILVDEEEKVLIQK [ADD1] are 4.9 ± 0.15 and 4.74 ± 0.61.
With LGLNAAFWFFALTSLRLVFLLAFG [RETREG3], the protein stability index by setting is: under setting [1], 3.06 ± 0.41; under setting [2], 3.35 ± 1.4.
Consider LGRSIVSSPQGKSGPEAARAGGWV [PKD2L1], for which the protein stability index worked out at 3.45 ± 0.2 under setting [1] and 3.83 ± 0.36 under setting [2].
The corresponding values for LHPLLSGRLGRWLRSTRFSGSLDR [PCDHGC5] are 2.46 ± 0.23 and 2.45 ± 0.54.
For LHRTEGELQKIVQAGDKDLDGQLD [SLC25A25], in that order: 5.58 ± 0.21 and 5.55 ± 0.31.
The corresponding values for LHSACGLSKDHQEVETEGPESADT [TOR1AIP2] are 5.36 ± 0.26 and 5.53 ± 0.16.
Regarding LIDRSGRHFGTILNYLRDGSVPLP [KCTD13], the protein stability index worked out at 2.37 ± 0.28 under setting [1] and 2.46 ± 0.32 under setting [2].
For LINYQDDAELATRAIPELTKLLND [CTNNB1], in that order: 3.61 ± 0.37 and 3.59 ± 0.31.
The sequence LISNASDALDKIRYESLTDPSKLD [HSP90AB1] had a protein stability index under setting [1] of 3.75 ± 0.34 and a protein stability index under setting [2] of 3.85 ± 0.41.
Turning to LIVGRIAIGVSISLSSIATCVYIA [SLC2A12], the protein stability index came to 3.09 ± 0.45 under setting [1] and 3.01 ± 0.39 under setting [2].
The corresponding values for LKDGYRLDEIPDDEDLDLIPPKSV [FAM219A] are 5.16 ± 0.15 and 5.3 ± 0.13.
Take LKDTYASLGKTNVKDDELDAMLKE [MYL5]: the protein stability index under setting [1] turned out to be 5.28 ± 0.21 and the protein stability index under setting [2] was determined as 5.35 ± 0.2.
LKIPQVRGMDLSWESRTGDQYSYS [LCOR] returned a protein stability index under setting [1] of 2.87 ± 0.25 and a protein stability index under setting [2] of 2.86 ± 0.31.
Regarding LKKAKVQVERMREVNSRCYQPEPF [FBXO34], the protein stability index reads like this: under setting [1], 2.79 ± 0.61; under setting [2], 2.84 ± 0.16.
For LKLANHQRPVSRQVTCLRTQVLED [TRAF3IP2], in that order: 3.49 ± 0.35 and 3.58 ± 0.27.
On to LKRAFEAANLPALVLKIMSGTFAP [NEK8], for which the protein stability index reads like this: under setting [1], 2.57 ± 0.59; under setting [2], 2.71 ± 0.57.
For LKSSILIAMAVYTYLRLIVDHHGT [INTS3], the protein stability index under setting [1] is 3.51 ± 0.21 and the protein stability index under setting [2] is 3.11 ± 0.27.
LLADLKKCGDLECEALINRVSAMR [MIA2]: the protein stability index by setting is: under setting [1], 2.53 ± 0.23; under setting [2], 2.55 ± 0.32.
The corresponding values for LLAEKEEKLQKEQKELQDVGQSLR [SASS6] are 5.45 ± 0.23 and 5.35 ± 0.28.
For LLAIQFLEFFYGIATATEIAYYSY [SLC19A2], in that order: 2.92 ± 1.3 and 3.13 ± 0.23.
The corresponding values for LLERQVEMTPEKFSVLMEKLCKKG [FANCE] are 3.03 ± 0.26 and 3.36 ± 0.19.
As to LLIFGKELSAIGSDTTPLPSWAAL [SNX8], the protein stability index by setting is: under setting [1], 2.42 ± 0.37; under setting [2], 2.13 ± 0.28.
The corresponding values for LLKIHEVSTVSHADADCFVCVFLS [CASP6] are 2.4 ± 0.17 and 2.4 ± 0.41.
